# Reference: PMC11267267, “Metabolic Recoding of NSUN2‐Mediated m^5C Modification Promotes the Progression of Colorectal Cancer via the NSUN2/YBX1/m^5C‐ENO1 Positive Feedback Loop” (Advanced Science, 2024)
# Tested on: YBX1 cold shock domain (MST)
# Test: MST
# Details: not given in the material (MST and pull-down methods text missing)
substance,measurement,value
unmethylated ENO1 RNA oligo (MST),Kd,10.1 µM
